According to paper PMC11487180, “PAK6 rescues pathogenic LRRK2-mediated ciliogenesis and centrosomal cohesion defects in a mutation-specific manner” (Cell Death & Disease, 2024):

Target: T1, AK7 (human, UniProt Q96M32 1-723)
T1 construct: AK7, human, recombinant protein on the HuProt array; source: bought: HuProt Human Proteome Microarray v4.0, Cambridge Protein Arrays (recombinant protein spotted on the array)
Test: peptide or protein array; HuProt Human Proteome Microarray v4.0 (GST proteins spotted) incubated with recombinant PAK6 in 2% BSA, PBS, 0.05% Tween20 for 2 h at RT; detected with anti-PAK6 and fluorophore conjugated secondary antibody; hits by Z score > 2.5
Settings: both partners purified

T1 sequence (Q96M32 whole entry): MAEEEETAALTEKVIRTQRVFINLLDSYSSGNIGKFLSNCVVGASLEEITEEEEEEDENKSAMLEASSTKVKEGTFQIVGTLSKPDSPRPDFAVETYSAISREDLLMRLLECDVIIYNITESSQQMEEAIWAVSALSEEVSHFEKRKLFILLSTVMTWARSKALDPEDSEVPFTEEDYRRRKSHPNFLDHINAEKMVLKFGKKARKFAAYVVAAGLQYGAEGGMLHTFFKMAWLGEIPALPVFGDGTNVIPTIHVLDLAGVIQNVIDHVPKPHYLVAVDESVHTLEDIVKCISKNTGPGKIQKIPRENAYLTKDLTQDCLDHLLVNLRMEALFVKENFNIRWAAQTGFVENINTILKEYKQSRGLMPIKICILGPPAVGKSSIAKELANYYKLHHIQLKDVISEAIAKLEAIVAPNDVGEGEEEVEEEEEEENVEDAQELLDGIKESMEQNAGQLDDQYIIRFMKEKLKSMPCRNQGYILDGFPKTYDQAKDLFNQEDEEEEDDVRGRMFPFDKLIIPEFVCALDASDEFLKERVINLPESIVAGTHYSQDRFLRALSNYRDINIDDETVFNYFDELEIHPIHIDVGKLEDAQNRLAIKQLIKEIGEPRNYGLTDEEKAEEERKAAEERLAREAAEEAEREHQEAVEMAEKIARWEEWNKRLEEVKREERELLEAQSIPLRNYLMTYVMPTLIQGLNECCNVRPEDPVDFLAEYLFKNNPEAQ

B1: Recombinant full-length human PAK6 (ThermoFisher, #PR5307A) (enzyme, UniProt Q9NQU5 1-681, looked up)
chain: MFRKKKKKRPEISAPQNFQHRVHTSFDPKEGKFVGLPPQWQNILDTLRRPKPVVDPSRITRVQLQPMKTVVRGSAMPVDGYISGLLNDIQKLSVISSNTLRGRSPTSRRRAQSLGLLGDEHWATDPDMYLQSPQSERTDPHGLYLSCNGGTPAGHKQMPWPEPQSPRVLPNGLAAKAQSLGPAEFQGASQRCLQLGACLQSSPPGASPPTGTNRHGMKAAKHGSEEARPQSCLVGSATGRPGGEGSPSPKTRESSLKRRLFRSMFLSTAATAPPSSSKPGPPPQSKPNSSFRPPQKDNPPSLVAKAQSLPSDQPVGTFSPLTTSDTSSPQKSLRTAPATGQLPGRSSPAGSPRTWHAQISTSNLYLPQDPTVAKGALAGEDTGVVTHEQFKAALRMVVDQGDPRLLLDSYVKIGEGSTGIVCLAREKHSGRQVAVKMMDLRKQQRRELLFNEVVIMRDYQHFNVVEMYKSYLVGEELWVLMEFLQGGALTDIVSQVRLNEEQIATVCEAVLQALAYLHAQGVIHRDIKSDSILLTLDGRVKLSDFGFCAQISKDVPKRKSLVGTPYWMAPEVISRSLYATEVDIWSLGIMVIEMVDGEPPYFSDSPVQAMKRLRDSPPPKLKNSHKVSPVLRDFLERMLVRDPQERATAQELLDHPFLLQTGLPECLVPLIQLYRKQTSTC
notes: source: bought: ThermoFisher, #PR5307A
binding result: binds
